Reference: US20040043420A1, “Method of identifying conformation-sensitive binding peptides and uses thereof” (priority 2003, published 2004)
Substitutions are numbered along the chain they refer to. No end group written: not given here.

B1: B6F3 (peptide)
chain: MKLLSSIEQACDICRLKKLKCSKEKPKCAKCLKNNWECRYSPKTKRSPLTRAHLTEVESRLERLEQLFLLIFPREDLDMILKMDSLQDIKALLTGLFVQDNVNKDAVTDRLASVETDMPLTLRQHRISATSSSEESSNKGQRQLTVSEFFRATHLLRLLRTDSALDLQPS
B2: B5A2 (peptide)
chain: MKLLSSIEQACDICRLKKLKCSKEKPKCAKCLKNNWECRYSPKTKRSPLTRAHLTEVESRLERLEQLFLLIFPREDLDMILKMDSLQDIKALLTGLFVQDNVNKDAVTDRLASVETDMPLTLRQHRISATSSSEESSNKGQRQLTVSEFGCSAILRYLLRSPRDLDLQPS
B3: B2G1 (peptide)
chain: B1 chain with A152L, T153R, H154R, L156D, R160Q, T161D, D162S, S163F, A164L
B4: B4F6 (peptide)
chain: B2 chain with G150S, C151G, S152V, A153P, R156H, Y157M, R160M, S161L, R163S, D164S
B5: B8H3, P04386 1-147 (peptide)
chain: MKLLSSIEQACDICRLKKLKCSKEKPKCAKCLKNNWECRYSPKTKRSPLTRAHLTEVESRLERLEQLFLLIFPREDLDMILKMDSLQDIKALLTGLFVQDNVNKDAVTDRLASVETDMPLTLRQHRISATSSSEESSNKGQRQLTVSEFHSRLRVEVVSWGIGSTCSQANSGRISYDL
modifications: not checked
B6: B8E9, P04386 1-147 (peptide)
chain: MKLLSSIEQACDICRLKKLKCSKEKPKCAKCLKNNWECRYSPKTKRSPLTRAHLTEVESRLERLEQLFLLIFPREDLDMILKMDSLQDIKALLTGLFVQDNVNKDAVTDRLASVETDMPLTLRQHRISATSSSEESSNKGQRQLTVSEFQQCMCAEVKSWLGGSLDLQPS
modifications: not checked
B7: B5G11, P04386 1-147 (peptide)
chain: MKLLSSIEQACDICRLKKLKCSKEKPKCAKCLKNNWECRYSPKTKRSPLTRAHLTEVESRLERLEQLFLLIFPREDLDMILKMDSLQDIKALLTGLFVQDNVNKDAVTDRLASVETDMPLTLRQHRISATSSSEESSNKGQRQLTVSEFRSSVFEQMYLCTGGSLDLQPS
modifications: not checked

Biological target: T1, estrogen receptor (ER) α as a carboxy-terminal fusion to the Gal4-activation domain (yeast, UniProt P03372 1-595, limits assumed); note: test concentration or dose not given here
T1 sequence (looked up): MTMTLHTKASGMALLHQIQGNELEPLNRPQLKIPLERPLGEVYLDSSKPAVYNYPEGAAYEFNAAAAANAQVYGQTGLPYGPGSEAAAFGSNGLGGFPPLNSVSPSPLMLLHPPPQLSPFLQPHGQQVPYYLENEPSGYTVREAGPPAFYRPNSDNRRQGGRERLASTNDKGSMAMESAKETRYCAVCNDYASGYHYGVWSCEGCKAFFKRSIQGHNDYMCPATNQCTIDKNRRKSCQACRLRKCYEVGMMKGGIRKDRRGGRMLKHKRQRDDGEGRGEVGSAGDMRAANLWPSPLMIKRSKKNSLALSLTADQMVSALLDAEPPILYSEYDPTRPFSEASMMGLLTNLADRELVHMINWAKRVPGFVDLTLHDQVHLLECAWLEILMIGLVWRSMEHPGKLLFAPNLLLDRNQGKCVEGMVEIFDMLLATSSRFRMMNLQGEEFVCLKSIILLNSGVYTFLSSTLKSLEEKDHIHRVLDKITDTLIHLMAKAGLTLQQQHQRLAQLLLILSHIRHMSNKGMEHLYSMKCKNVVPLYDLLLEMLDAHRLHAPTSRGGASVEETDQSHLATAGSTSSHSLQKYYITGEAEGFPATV
Test: cell-based or functional assay

Question: With B1 as the binder, how does the “Fold Induction (ligand-induced β-galactosidase, two-hybrid)” value read?
Answer: 3 fold

Question: Which “Fold Induction (ligand-induced β-galactosidase, two-hybrid)” value does the source give for B2 here?
Answer: 3 fold

Question: Which “Fold Induction (ligand-induced β-galactosidase, two-hybrid)” value does the source give for B3 here?
Answer: 12 fold

Question: For B4, which “Fold Induction (ligand-induced β-galactosidase, two-hybrid)” value is on record?
Answer: 5 fold

Biological target: T2, Gal4 transcriptional activation domain (AD) fused in frame with AR (yeast), P10275
T2 chain: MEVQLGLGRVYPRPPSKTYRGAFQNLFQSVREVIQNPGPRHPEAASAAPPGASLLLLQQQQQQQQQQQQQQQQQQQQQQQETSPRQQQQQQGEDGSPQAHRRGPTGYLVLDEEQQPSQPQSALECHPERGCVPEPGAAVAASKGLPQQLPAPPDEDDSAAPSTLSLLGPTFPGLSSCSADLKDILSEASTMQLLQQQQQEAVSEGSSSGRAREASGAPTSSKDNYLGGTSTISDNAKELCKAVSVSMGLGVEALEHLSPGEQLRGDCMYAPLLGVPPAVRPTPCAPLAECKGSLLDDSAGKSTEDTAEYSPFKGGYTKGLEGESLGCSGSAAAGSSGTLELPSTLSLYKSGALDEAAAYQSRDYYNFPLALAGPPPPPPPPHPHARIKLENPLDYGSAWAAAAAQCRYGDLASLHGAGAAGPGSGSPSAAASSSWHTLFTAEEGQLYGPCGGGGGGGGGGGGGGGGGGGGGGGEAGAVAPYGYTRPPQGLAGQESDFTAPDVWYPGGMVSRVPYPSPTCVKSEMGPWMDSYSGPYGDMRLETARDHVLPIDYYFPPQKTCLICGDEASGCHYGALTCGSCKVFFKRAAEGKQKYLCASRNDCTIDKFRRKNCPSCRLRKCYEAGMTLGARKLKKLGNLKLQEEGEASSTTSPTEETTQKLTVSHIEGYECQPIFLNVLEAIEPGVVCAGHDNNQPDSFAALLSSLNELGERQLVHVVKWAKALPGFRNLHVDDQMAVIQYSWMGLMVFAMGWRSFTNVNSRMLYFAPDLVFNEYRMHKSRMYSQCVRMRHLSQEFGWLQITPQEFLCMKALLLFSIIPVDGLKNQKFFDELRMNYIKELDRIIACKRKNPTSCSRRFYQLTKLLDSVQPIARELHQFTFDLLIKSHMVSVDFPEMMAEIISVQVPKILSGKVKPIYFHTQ
Test: cell-based or functional assay

Question: For B5, which Fold induction (yeast two-hybrid) is on record?
Answer: 22 fold

Question: And the β-galactosidase activity (yeast two-hybrid), CPA?
Answer: 0.393

Question: And the β-galactosidase activity (yeast two-hybrid), DHT?
Answer: 3.81

Question: What about the β-galactosidase activity (yeast two-hybrid), No Lig of the same binder?
Answer: 0.174

Question: What about the β-galactosidase activity (yeast two-hybrid), RU of the same binder?
Answer: 0

Question: Which Fold induction (yeast two-hybrid) does the source give for B6 here?
Answer: 4 fold

Question: What about the β-galactosidase activity (yeast two-hybrid), CPA of the same binder?
Answer: 0.563

Question: What about the β-galactosidase activity (yeast two-hybrid), DHT of the same binder?
Answer: 1.75

Question: And the β-galactosidase activity (yeast two-hybrid), No Lig?
Answer: 0.499

Question: What about the β-galactosidase activity (yeast two-hybrid), RU of the same binder?
Answer: 0.8

Question: Which Fold induction (yeast two-hybrid) does the source give for B7 here?
Answer: 6 fold

Question: And the β-galactosidase activity (yeast two-hybrid), CPA?
Answer: 0.973

Question: And the β-galactosidase activity (yeast two-hybrid), DHT?
Answer: 3.96

Question: What about the β-galactosidase activity (yeast two-hybrid), No Lig of the same binder?
Answer: 0.638

Question: And the β-galactosidase activity (yeast two-hybrid), RU?
Answer: 0.9

Biological target: T3, pVP16-AR (HSV), P10275
T3 chain: T2 chain
Test: cell-based or functional assay

Question: How did the luciferase (mammalian two-hybrid, Huh-7), CYP. (Relative Light Units) turn out when B5 was run?
Answer: 10.5

Question: And the luciferase (mammalian two-hybrid, Huh-7), DHT (Relative Light Units)?
Answer: 11.6

Question: And the luciferase (mammalian two-hybrid, Huh-7), MPA (Relative Light Units)?
Answer: 11.3

Question: What about the luciferase (mammalian two-hybrid, Huh-7), RU486 (Relative Light Units) of the same binder?
Answer: 3.88

Question: And the luciferase (mammalian two-hybrid, Huh-7), no compound (Relative Light Units)?
Answer: 0.132

Question: B6 was tested. Which luciferase (mammalian two-hybrid, Huh-7), CYP. (Relative Light Units) did it give?
Answer: 16

Question: And the luciferase (mammalian two-hybrid, Huh-7), DHT (Relative Light Units)?
Answer: 19.6

Question: And the luciferase (mammalian two-hybrid, Huh-7), MPA (Relative Light Units)?
Answer: 18.5

Question: And the luciferase (mammalian two-hybrid, Huh-7), RU486 (Relative Light Units)?
Answer: 10.2

Question: What about the luciferase (mammalian two-hybrid, Huh-7), no compound (Relative Light Units) of the same binder?
Answer: 0.209

Question: B7 was tested. Which luciferase (mammalian two-hybrid, Huh-7), CYP. (Relative Light Units) did it give?
Answer: 4.46

Question: And the luciferase (mammalian two-hybrid, Huh-7), DHT (Relative Light Units)?
Answer: 15.8

Question: What about the luciferase (mammalian two-hybrid, Huh-7), MPA (Relative Light Units) of the same binder?
Answer: 8.03

Question: What about the luciferase (mammalian two-hybrid, Huh-7), RU486 (Relative Light Units) of the same binder?
Answer: 0.105

Question: And the luciferase (mammalian two-hybrid, Huh-7), no compound (Relative Light Units)?
Answer: 0.0503

Biological target: T4, ER α (UniProt P03372 1-595, limits assumed)
T4 construct: also called estrogen receptor α; ERα-ERE
T4 sequence (looked up): T1 sequence (looked up)
Test: phage isolated on ERα on plastic; Tamoxifen

Question: Does SSWPYLPKREEWASR [13PT] bind?
Answer: binds

Question: Does SSRMGHVWYDWTFSR [5PT] bind?
Answer: binds

Question: Does SSSPWWSFNLRDMSR [12PT] bind?
Answer: binds

Question: Does SRDNCGAGLWAGCSR [19PT] bind?
Answer: binds

Question: Does SSYLTLGKSMMAISR [16PT] bind?
Answer: binds

Question: Does SSSATSIKVQYQISR [15PT] bind?
Answer: binds

Question: Does SSRLLGDFGGSVVSR [6PT] bind?
Answer: binds

Question: Does SSWAGIKFGKPPHSR [8PT] bind?
Answer: binds

Question: Does SSGRYDPFVLNAASR [11PT] bind?
Answer: binds

Question: Does SSKYVFGFQVAGGSR [7PT] bind?
Answer: binds

Question: Does SSGYWGGWDYGAGSR [18PT] bind?
Answer: binds

Question: Does SRDTGDMWWGRGGSR [10PT] bind?
Answer: binds

Question: Does SSGWIEQKLRGSFSR [14PT] bind?
Answer: binds

Question: Does SSWHSRWDLALGFSR [17PT] bind?
Answer: binds

Question: Does SSSWSYGKPTFLSSR [9PT] bind?
Answer: binds

Biological target: T4, ER α
Test: phage isolated on ERα-ERE; Estradiol

Question: Does SSYKPHSLLEWHLLGGTSR [18E] bind?
Answer: binds

Question: Does SSRLLACELMYEDADVCSR [8E] bind?
Answer: binds

Question: Does SRLEELLLMDFWRSR [5E] bind?
Answer: binds

Question: Does SSKLWQLLSSPIDSR [6E] bind?
Answer: binds

Question: Does HSHSPLLMALLAPPGG [15E] bind?
Answer: binds

Question: Does SRLVALLKSPWSVSR [4E] bind?
Answer: binds

Question: Does SSCLREILLYGACSR (not fully specified; cysteine pairing not given here) [13E] bind?
Answer: binds

Question: Does SRSLLMDMLMSDDYVTVSR [7E] bind?
Answer: binds

Question: Does SSLRCYLSSSKVDQWACSR (not fully specified; cysteine pairing not given here) [17E] bind?
Answer: binds

Question: Does SRLEYYLRLGTYESR [10E] bind?
Answer: binds
